Test results from patent US20250002562A1 (Scripps Research, published 2025).

Tests used:
[1] = molecular target: T1, SARS-CoV-2-B.1.617.2 (Delta variant) RBD (SARS-CoV-2 B.1.617.2 (Delta variant), UniProt P0DTC2 319-541); experiment: ELISA on RBD antigen, human IgG at 1 µg/mL, O.D. 450 nm
T1 construct: domain: RBD; also called Delta RBD; Delta antigen

[2] = molecular target: T2, Omicron (B.1.1.529) RBD antigen (Genscript) (SARS-CoV2 Omicron variant (B.1.1.529), UniProt P0DTC2 319-541); experiment: as above
T2 construct: domain: RBD; also called Omicron RBD; Omicron variant RBD

[3] = molecular target: T1, SARS-CoV-2-B.1.617.2 (Delta variant) RBD; experiment: ELISA of scFv from individual colonies on RBD antigens

Binder | binding result [1] | binding result [2] | binding result [3]
SKAI-DS64 (antibody, V domains shown, also called SKAI-DS64 human IgG antibody) VH: EVQLLESGGGLVQPGGSLRLSCAASGFTFSDYSMSWVRQAPGKGLEWVSGIYHSDGSKYYADSVKGRFTISRDNSKNTLYLQMNSLRAEDTAVYYCARFDPVFDYWGQGTLVTV VL: QSVLTQPPSASGTPGQRVTISCSGSSSNIGSNAVSWYQQLPGTAPKLLIYDNNHRPSGVPDRFSGSKSGTSASLAISGLRSEDEADYYCGSWDDSLNAYVFGGGTKLTVL | binds | no binding (tested: 1 µg/mL) | 
SKAI-DS7 scFv (scFv, V domains shown) VH: EVQLLESGGGLVQTGGSLRLSCAASGFTFSDYAMSWVRQAPGKGLEWVSGIYHSGGNTYYADSVKGRFTISRDNSKNTLYLQMNSLRAEDTAVYYCARDAGPFDYWGQGTLVAV VL: QSVLTQPPSASGTPGQRVTISCSGSSSNIGSNAVSWYQQLPGTAPKLLIYDNNHRPSGVPDRFSGSKSGTSASLAISGLRSEDEADYYCGSWDDSLNAYVFGGGTKLTVL |  |  | binds
SKAI-DS1 (antibody, V domains shown, also called SKAI-DS1 human IgG antibody) VH: EVQLLESGGGLVQTGGSLRLSCAASGFTFSDYAMSWVRQAPGKGLEWVSWIYSNDGNKYYADSVKGRFTISRDNSKNTLYLQMNSLRAEDTAVYYCARFPVPSWRNTWSSYDAMDVWGQGTLVTV VL: QSVLTQPPSASGTPGRRVTISCTGSSSNIGSNYVSWYQQLPGTAPKLLIYSDSNRPSGVPDRFSGSKSGTSASLAISGLRSEDEADYYCGTWDASLSGYVFGGGTKLTVL | binds | no binding (tested: 1 µg/mL) | 
SKAI-DS1 scFv (scFv, V domains shown) VH: EVQLLESGGGLVQTGGSLRLSCAASGFTFSDYAMSWVRQAPGKGLEWVSWIYSNDGNKYYADSVKGRFTISRDNSKNTLYLQMNSLRAEDTAVYYCARFPVPSWRNTWSSYDAMDVWGQGTLVTV VL: QSVLTQPPSASGTPGRRVTISCTGSSSNIGSNYVSWYQQLPGTAPKLLIYSDSNRPSGVPDRFSGSKSGTSASLAISGLRSEDEADYYCGTWDASLSGYVFGGGTKLTVL |  |  | binds
SKAI-DS16 (antibody, V domains shown, also called SKAI-DS16 human IgG antibody) VH: EVQLLESGGGLVQPGGSLRLSCAASGFTFSDYSMSWVRQAPGKGLEWVSWIYPDNGNTYYADSVKGRFTISRDNSKNTLYLQMNSLRAEDTAVYYCAKPKTSFDYWGQGTLVTV VL: QSVLTQPPSASGTPGQRVTISCSGSSSNIGSNYVYWYQQLPGTAPKLLIYDDSNRPSGVPGRFSGSKSGTSASLAISGLRSEDEADYYCGTWDYSLNGYVFGGGTKLTVL | no binding (tested: 1 µg/mL) | no binding (tested: 1 µg/mL) | 
SKAI-DS66 (antibody, V domains shown, also called SKAI-DS66 human IgG antibody) VH: EVQLLESGGGLVQPGGSLRLSCAASGFTFSDYAMSWVRQAPGKGLEWVSAIYPGGGSTYYADSVKGRFTISRDNSKNTLYLQMNSLRAEDTAVYYCARNLFGFDYWGQGTLVTV VL: QSVLTQPPSASGTPGQRVTISCTGSSSNIGSNAVYWYQQLPGTAPKLLIYDDSNRPSGVPDRFSGSKSGTSASLAISGLRSEDEADYYCGSWDDSLSAYVFGGGTKLTVL | binds | no binding (tested: 1 µg/mL) | 
SKAI-DS3 (antibody, V domains shown, also called SKAI-DS3 human IgG antibody) VH: EVQLLESGGGLVQPGGSLRLSCAASGFTFSDYSMSWVRQAPGKGLEWVSAISSDSSSTYYADSVKGRFTISRDNSENTLYLQMNSLRAEDTAVYYCAKAILRCIPLGCYYADAMDVWGQGTLVTV VL: QSVLTQPPSASGTPGQRVTISCTGSSSNIGSNDVTWYQQLPGTAPKLLIYADSKRPSGVPDRFSGSKSGTSASLAISGLRSEDEADYYCGAWDYSLSAYVFGGGTKLTVL | no binding (tested: 1 µg/mL) | no binding (tested: 1 µg/mL) | 
SKAI-DS15 (antibody, V domains shown, also called SKAI-DS15 human IgG antibody) VH: EVQLLESGGGLVQPGGSLRLSCAASGFTFSDYDMSWVRQAPGKGLEWVSMIYSGSSSKYYADSVKGRFTISRDNSKNTLYLQMNSLRAEDTAVYYCARVTGTCHSGSCYYSDAMDVWGQGTLVTV VL: QSVLTQPPSASGTPGQRVTISCSGSSSNIGSNDVNWYQQLPGTAPKLLIYDDSNRPSGVPDRFSGSKSGTSASLAISGLRSEDEADYYCGAWDDSLSGYVFGGGTKLTVL | no binding (tested: 1 µg/mL) | no binding (tested: 1 µg/mL) | 
